B1: hybridoma clone 40E12 (antibody, V domains shown)
VH: QIQLVQSGPELRKPGETVKISCKASGYAFTTFGMSWIKQAPGQGLKWMGWINTYSRVPKYTDDFKGRFAFSLEISATTAYLLINNLKNGDTATYFCARGYGGEGGLGFSGQGTTLTVSS
VL: DVLMTQTPFSLPVSLGDQASISCRSSQSIIDSDGNTYLEWYLQKPGQSPKLLIYKVSNRFSGVPDRFSGSGSGTDFTLRISRVEAEDLGVYYCFQGSHFPYTFAGGTKLELK
notes: Murine hybridoma antibody purified on protein A; also called candidate antibody 40E12
B2: monoclone 1F12 (from the fully human single-chain phage antibody library) (scFv, V domains shown)
VH: QVQLVQSGAEVKKPGASVKVSCKASGYTFTSYGISWVRQAPGQGLEWMGWISAYNGNTNYAQKLQGRVTMTRDTSTSTAYMELRSLRSDDTAVYYCAREGRSGGSFDIWGQGTMVTVSS
VL: DIQMTQSPSSLSASVGDRVTITCRASQGISSYLAWYQQKPGKAPKLLIYDASNLETGVPSRFSGSGSGTDFTFTISSLQPEDIATYYCQQYDNLPLTFGGGTKVEIK
notes: Tested as E. coli culture supernatant of a clone of a single-chain library

Columns and labels:
[1] = target: T1, 21 amino acid polypeptide at the N-terminus of human ADM (human); assay: ELISA, peptide coated at 1.0 ug/mL, hybridoma supernatant
T1 construct: Coated on the ELISA plate in the hybridoma screening; also called YY-21
T1 peptide: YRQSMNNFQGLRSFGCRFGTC
Method: (§1) YY-21 or YY-19 was diluted with PBS to 1.0 μg/mL, added to a 96-well plate (Corning, 9018), with 100 μL/well, and incubated at 4° C. overnight for coating. The ELISA plate was washed 3 times with a washing buffer (PBS+0.05% Tween 20) on an automatic plate washer the next day. 300 μL of a blocking buffer (PBS+0.05% Tween 20+1% BSA) was added to each well, and the plate was placed at room temperature for 1 h for blocking. The plate was then washed 3 times with the washing buffer on the automatic plate washer, and the hybridoma supernatant was added to each well of the ELISA plate. The plate was placed and incubated at room temperature for 1 h, and then washed 3 times according to the method described above. Goat Anti-mouse IgG Fc-HRP (Sigma, A0168) or Goat Anti-rat-IgG-HRP (Sigma, A5795) was diluted in 1:5000 with the blocking buffer, with 100 μL/well. The plate was placed and incubated at room temperature for 1 h. The plate was then washed 3 times according to the method described above. A TMB substrate solution was added with 100 μL/well and incubated at room temperature for 10 min, then 50 μL of 1.0 M hydrochloric acid was added to each well to terminate the reaction, and the plate was read by a microplate reader at OD₄₅₀ nm. […]

[2] = target: T2, 19 amino acid polypeptide at the N-terminus of mouse ADM (mouse); assay: as above
T2 construct: Coated on the ELISA plate in the hybridoma screening; also called YY-19
T2 peptide: YRQSMNQGSRSNGCRFGTC
Method: as §1

[3] = target: T3, biotin-labeled human ADM (human, not fully specified; biotin label (named human ADM-C-biotin in Example 1.4; position of the biotin not stated for the other lots)); assay: BLI (Octet RED96e), biotinylated antigen on streptavidin sensor, antibody 100 nM, 1:1 fit
T3 construct: Synthetic peptide; also called human ADM-C-biotin; hADM-Biotin
T3 peptide: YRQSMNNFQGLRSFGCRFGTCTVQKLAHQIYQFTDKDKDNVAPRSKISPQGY
Method: (§2) The affinity of the candidate antibody for biotin-labeled human ADM (human ADM-C-biotin for short, the sequence of human ADM is set forth in SEQ ID NO: 4) and mouse ADM (mouse ADM-C-biotin for short, the sequence of mouse ADM is set forth in SEQ ID NO: 5) was determined by adopting Octet RED96e (Fortebio). The antigens and antibody were all diluted with 1× PBST, the concentration of the antigen used was 2 μg/mL, and the working concentration of the antibody used was 100 nM.
(§3) First, the sample was added to a 96-well plate (Greiner bio-one, 655209) with a system of 200 μL/well. Software parameters were then set, the plate temperature was set to 30° C., and the standard kinetic signal was collected at a frequency of 5.0 HZ. Next, a streptavidin sensor (Fortébio, Cat. No. 18-5020) was pre-wetted with 1× PBST for 10 min and then tested on a machine. Each cycle included the following steps: 1) immersing the sensor in a buffer for 180 s to stabilize the baseline; 2) immobilizing the antigen for 10 s, allowing the antigen to bind to the sensor, and controlling the binding amount of the antigen between 0.5 nm and 1.0 nm; 3) immersing the sensor in the buffer for 180 s; 4) binding the antigen to the antibody for the binding time of 180 s; and 5) dissociating the antigen and the antibody for 10 min.
(§4) The equilibrium dissociation constant (KD) of the antibody was calculated by measuring the association rate (Kon) and the dissociation rate (Koff) of the antigen-antibody in a 1:1 binding manner by adopting the Data Analysis 12.0 software from Fortebio.

[4] = target: T4, biotin-labeled mouse ADM (mouse, not fully specified; biotin label (named mouse ADM-C-biotin in Example 1.4; position of the biotin not stated for the other lots)); assay: as above
T4 construct: Synthetic peptide; also called mouse ADM-C-biotin; mADM-Biotin
T4 peptide: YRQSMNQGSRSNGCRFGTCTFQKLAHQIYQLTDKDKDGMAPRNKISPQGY
Method: as §2, §3, §4

[5] = target: T3, biotin-labeled human ADM; assay: ELISA of E. coli culture supernatant of phage library monoclones

| Binder | binding result [1] | binding result [2] | Kd [3] | koff [3] | kon [3] | Kd [4] | koff [4] | kon [4] | binding result [5] |
| --- | --- | --- | --- | --- | --- | --- | --- | --- | --- |
| B1 | binds | binds | 314 pM | 0.000109 s⁻¹ | 347000 M⁻¹ s⁻¹ | 236 pM | 8.9e-05 s⁻¹ | 377000 M⁻¹ s⁻¹ |  |
| B2 |  |  |  |  |  |  |  |  | binds |
